According to the supplement of paper PMC12042874:
± gives the uncertainty stated by the source.

Test: amyloid nucleation score (Sup35N fusion, yeast selection) (log enrichment); library NNK3; higher = more nucleation; inactive = no reads after selection
Summary of the method: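 Three technical output replicates were used for random libraries. Psi-negative yeast expressing peptides of 20 random codons fused to Sup35N were induced with 100 μM copper sulfate for 24 hours and grown 7 days at 30°C on medium lacking adenine and uracil, and input and output plasmid inserts were Illumina-sequenced, excluding sequences with under 100 input reads. The nucleation score is the DiMSum log enrichment of output over input reads, centred on the mode score of non-aggregating sequences.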

| Substance | amyloid nucleation score |
| --- | --- |
| HQNSCDMLFRLSSTYLWGRA | inactive |
| HQSNFGDMSLVSNGSFRKAK | inactive |
| HRFAGTKVALYGVKLGGARY | inactive |
| HRGLWTKATSLYYPFEMWMV | inactive |
| HRGYAAFFS | inactive |
| HRLCSHYVFTGCPSNMRQCF | 0.083 ± 0.28 |
| HRPGFAGGHLWTVFKYVR | inactive |
| HRSRISTWMWG | inactive |
| HSATASFHAADWSLKFMDGP | 0.326 ± 0.23 |
| HSDVWSVRSGAYLLLYIQTM | inactive |
| HSFIYVLDVLNVR | inactive |
| HSFTAMLICSAYASAARYLR | inactive |
| HSFVSWTRLT | inactive |
| HSLLMCSMLLRFYVQYPICI | inactive |
| HSLVVPIPSPILRVLKE | inactive |
| HSMNHFIWLVFKMVSYVACV | inactive |
| HSRRHCFLVSWE | inactive |
| HSRYLMQLYVNSFSRFD | 1.28 ± 0.12 |
| HSVGWHFPLCFSTQMTLVRS | inactive |
| HSVPLPMLYFHYNMILLMLL | inactive |
| HSVWVYKHGLCDMWGGLTLI | inactive |
| HTHVSTTTGIFSDRICEW | inactive |

| Substance | amyloid nucleation score |
| --- | --- |
| HTMAHWITKEAAFLI | inactive |
| HTWTWDIII | 0.065 ± 0.23 |
| HVFYPALI | inactive |
| HVGLRAKLTFLDRVYLSILS | inactive |
| HVPYIHRIFIWTYK | inactive |
| HVQYLLHKFLTLVQMF | inactive |
| HVRDTKRVSLKRSTYADRGG | inactive |
| HVTSVMIFIIASIMYVEIKY | 0.339 ± 0.34 |
| HVYMGSFVPR | inactive |
| HWCVPL | inactive |
| HWCYRSFMTPAPPNLLPQPQ | inactive |
| HWGWVTSIESVVRRFCNNFC | inactive |
| HWIISYQAGCFHLNTFKIMY | inactive |
| HYQHVFLAFNSVLQSPILRE | inactive |
| HYRDFPSRN | inactive |
| HYVKPSSESRR | inactive |
| HYYINNTWMFKVYNRLLKRR | 2.51 ± 0.057 |
| IAAPRGMTDSRVVMRCLHVN | inactive |
| IALKGRAFAHEGCLRGRRGG | inactive |
| IALVMSIDVAVVLMYPSPQW | 0.381 ± 0.24 |
| IAQILDVQFSVHAIGVSRDM | inactive |
| ICDHVYVGNFLTQA | inactive |

| Substance | amyloid nucleation score |
| --- | --- |
| ICELLRFDPMLTCFRM | 0.77 ± 0.2 |
| ICGRTYVRVT | -0.775 ± 1.1 |
| ICLDKITDAIYMDYNRAFSC | inactive |
| ICLYLRQVKLIAGAERKKVQ | inactive |
| ICMYRRLRISCVLAYRFRHF | inactive |
| ICPWDIQRINMLMGRVDWLR | inactive |
| ICQWDVKMPRCATG | inactive |
| ICTPENT | -0.303 ± 0.9 |
| ICYSNDSLYMLLESS | inactive |
| IDELLSLQLHRIHKLLEMHG | inactive |
| IDGSYAFSKKPDPNSVKYIM | inactive |
| IDLRVTRNIFQSATLLMFFW | inactive |
| IDRLLLNTKYIVQGLPNWTK | inactive |
| IDWLKRVVEVTSVEGAYCWW | inactive |
| IERSNFLQCPVRGLRNTARV | 0.526 ± 0.26 |
| IEVGYITWKSARVWATNSSH | inactive |
| IEVKDSVGVRCFYTYSPTCQ | inactive |
| IEVYYSNRSWCLRQIRGCTG | inactive |
| IFLKNCLLWKTAGSFMNSIA | inactive |
| IFNWPSQTVLHIYKSAHVNM | 2.35 ± 0.066 |
